# Values joined by “and” are separate entries in the source; they are usually repeats but may differ in a detail not shown here. Identical values can stand only once.
# T1: Strep-II-UNO_C (D. melanogaster, UniProt Q7JQU5 281-417)
# T1 construct: source: Hi5 insect cells, baculovirus, co-expressed with MBP-SNM; purified (Strep-Tactin, SEC); not shown: twin Strep-II, N-terminal, kept
# T1 sequence (looked up): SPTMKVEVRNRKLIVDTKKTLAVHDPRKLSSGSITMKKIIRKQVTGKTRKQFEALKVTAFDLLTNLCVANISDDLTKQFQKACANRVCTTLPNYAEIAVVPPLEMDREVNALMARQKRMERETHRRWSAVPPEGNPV
# B1: MBP-SNM (natural protein, D. melanogaster, UniProt Q9W0F4 1-973, looked up)
# chain: MSDISFDDAVLNDSQASNQMDFEIREECSIAPNDEPVCVDGTVGDATNKSLLQMILSRKRLSPTNKRNSHIESVAKYWGEFYLDSPTAALVALLQFVVEVSGSHYQIPDDTSMPFSYSDILSNSSSHFSNTHIYPLIRKPADVFVNQVGSFLNALLLVANKFRSDSYQLFLVQLTNFVMACSESNIRTFRHTATMIGLKIMTILSDLKSLDDEIAMTVWMQMFNSMFVARSRDIVTDIRLLCISELGQWFARYPHCHLQPTSLRIFYEALNDGSGDVIQCSLDNISVLCRKDVLFSEIVALTSEFREILVELCLGKEDAIAEKSVQFLTHFHVLSAEILTDDVCRVLEQLIMAANRGLAQAAADLFILRRNGLDGETFCQRVKHLLQLFIECGHEQADYLVDSLIDNCELVLDWKSMIAVLLENPKSRELSDIHCSSLIAILLAGVKQATAGEIPPGRYTKDLKREPRQGAQERATKCLAPVLPELLRTYANRLQDIERLLELPKYFCFDYYHEQNRMGQLNELVEHFELIIFDQTSSTTVLQITVKTLEFLNRMIPIPLTKQLLNSAVTNYKMAWHRTQDTSPSRSTHNESNRLLATLRLLTVLSGHFNLSKWDLTEPLLFSLKMLLRQRRLPNGDDLPPEAFSLYLKACFCCLCWDMENLEGTALNNVDMDEYCDVLHHNLEDYLYVTFSLVGKSNTEPLAYPCFSYTCDLFVLHGNLCGSSNPSIRSVAHVPSGNELDILEGFLMEHFLELSPSDLMLETNSDQLQRIRSILTSYLKVVCLGVVPTMRASKFYEYYVKYHAPFGDVMRCSMELALQRNPIHFAMTMLHTCLLLYAKVFPDDTRHAAGQRALRPAEFSELMELANRLAKILISNPMEHRECVIALHRSGILFVFELAQKQPTEATKKLPFLRVLKVFVPLLLVQDKTRILNFFEPYEQLIIPTCNRNDIAHLKEYRNALRPRKTKSYPQAT
# notes: SNM (stromalin in meiosis; SA-2), D. melanogaster; source: purified (Strep-Tactin, SEC); not shown: MBP, N-terminal, kept
# B2: MBP-UNO_N (domain or fragment, D. melanogaster, UniProt Q7JQU5 1-73, looked up)
# chain: MPALTHQILTMQRAPPLNLSFKIQLLSGQNVILVECSGYESELFLPQIVGERITMQNVIQDRRCCAESMLLRD
# notes: UNO, D. melanogaster, N-terminal domain aa 1-73; found as a tetramer (SEC peak 1) and as a dimer (SEC peak 2); source: E. coli BL21, purified (amylose/MBP Trap, ion exchange, SEC); not shown: His6, N-terminal, kept; MBP, N-terminal, kept
# B3: Mod(mdg4)_CP (purified) (domain or fragment)
# chain: MADDEQFSLCWNNFNTNLSAGFHESLCRGDLVDVSLAAEGQIVKAHRLVLSVCSPFFRKMFTQMPSNTHAIVFLNNVSHSALKDLIQFMYCGEVNVKQDALPAFISTAESLQIKGLTDND
# Experiments:
# [1] = biological target: T1, Strep-II-UNO_C; assay: SEC-MALS + other: mass photometry; purified SU_C complex; SEC-MALS in 50 mM HEPES pH 7.5, 1 mM TCEP, 300 mM NaCl, 5–10 μM; mass photometry in 30 mM HEPES pH 7.8, 150 mM NaCl, 3 μM diluted 1:100; conditions: both partners purified
# [2] = biological target: the molecule itself; assay: SEC-MALS; purified protein alone, 50 μL at 5–10 μM, 50 mM HEPES pH 7.5, 1 mM TCEP, 300 mM NaCl
Binder,stoichiometry N [1],stoichiometry N [2]
B1,1,–
B2,–,4 and 2
B3,–,6

# Source: publication PMC9767379, “Homologous chromosomes are stably conjoined for Drosophila male meiosis I by SUM, a multimerized protein assembly with modules for DNA-binding and for separase-mediated dissociation co-opted from cohesin” (PLOS Genetics, 2022)
